Experimental data published in patent US20120009181A1.
Numbering of substitutions follows the chain as printed. Values belong to the binder of their own block, whether it stands above or below them.

Legend:
[1] = molecular target: human folate receptor 1 (FOLR1) (human)
[2] = molecular target: human folate receptor 1 (FOLR1) (human); remark: listed apart in the source
[3] = molecular target: human folate receptor 1 (FOLR1) (human); remark: listed apart in the source

ADCC, LDH release, percent specific lysis of IGROV-1 cells with human NK effector cells [1]: 30%
EC50 of ADCC activity on IGROV-1 cells [1]: 0.2 ng/mL
B1: huMov19 (antibody, V domains shown)
VH: QVQLVQSGAEVVKPGASVKISCKASGYTFTGYFMNWVKQSPGQSLEWIGRIHPYDGDTFYNQKFQGKATLTVDKSSNTAHMELLSLTSEDFAVYYCTRYDGSRAMDYWGQGTTVTVSS
VL: DIVLTQSPLSLAVSLGQPAIISCKASQSVSFAGTSLMHWYHQKPGQQPRLLIYRASNLEAGVPDRFSGSGSKTDFTLNISPVEAEDAATYYCQQSREYPYTFGGGTKLEIKR

B2: huMov19-sulfo-SPDB-DM4 (antibody, V domains shown)
VH: B1 VH
VL: B1 VL with N78T
modifications: maytansinoid DM4 linked to the antibody through the sulfo-SPDB linker, 3.5-4 DM4 per antibody; attachment residues not stated
IC50, nM (n = 3), Ab-based; in vitro cytotoxicity on IGROV-1 cells [2]: 0.3 nM

B3: huMov19-SPDB-DM4 (antibody, V domains shown)
VH: B1 VH
VL: B1 VL with N78T
modifications: maytansinoid DM4 linked to the antibody through the SPDB linker, 3.5-4 DM4 per antibody; attachment residues not stated
IC50, nM (n = 3), Ab-based; in vitro cytotoxicity on JEG-3 cells [2]: 0.2 nM

huAb-smcc-DM1 activity on KB in vitro [3]: 0.1 nM
B4: huMov19-SMCC-DM1 (antibody, V domains shown)
VH: B1 VH
VL: B1 VL
modifications: maytansinoid DM1 linked to the antibody through the SMCC linker, 3.5-4 DM1 per antibody; attachment residues not stated
IC50, nM (n = 3), Ab-based; in vitro cytotoxicity on IGROV-1 cells [2]: 1 nM
IC50, nM (n = 3), Ab-based; in vitro cytotoxicity on JEG-3 cells [2]: 20 nM
IC50, nM (n = 3), Ab-based; in vitro cytotoxicity on KB cells [2]: 0.1 nM
